What all share (experiment): rapid-quench phosphotransfer kinetics
Assay [1] addresses T1, YPD1, histidine-containing phosphotransfer (HPt) protein (S. cerevisiae, UniProt Q07688 1-167).
T1 sequence (looked up): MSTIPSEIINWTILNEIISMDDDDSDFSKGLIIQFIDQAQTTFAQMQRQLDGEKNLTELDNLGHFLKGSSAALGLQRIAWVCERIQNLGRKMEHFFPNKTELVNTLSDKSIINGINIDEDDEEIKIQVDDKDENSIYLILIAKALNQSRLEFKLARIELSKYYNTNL

For assay [2], the target named is T1, YPD1, histidine-containing …. This is another data set of the same source.
For assay [3] the target is unchanged. The source holds these as a separate data set.
For assay [4] the target is unchanged. This is another data set of the same source.
The target is the same in assay [5]. The source holds these as a separate data set.
The target is the same in assay [6]. The source holds these as a separate data set.
Assay [7] has the same target. The source holds these as a separate data set.
Assay [8] shares this target. This is another data set of the same source.
For assay [9] the target is unchanged. This is another data set of the same source.
Assay [10] has the same target. The source holds these as a separate data set.
Assay [11] deals with T2, SSK1 response regulator (receiver) domain, SSK1-R2 (S. cerevisiae, UniProt Q07084 495-712).
T2 sequence (looked up): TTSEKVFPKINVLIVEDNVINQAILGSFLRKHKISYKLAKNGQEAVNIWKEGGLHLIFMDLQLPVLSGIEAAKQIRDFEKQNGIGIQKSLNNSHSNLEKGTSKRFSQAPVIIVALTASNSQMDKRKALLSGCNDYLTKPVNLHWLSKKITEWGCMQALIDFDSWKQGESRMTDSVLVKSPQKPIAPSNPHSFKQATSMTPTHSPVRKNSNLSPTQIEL

For assay [12], the target named is T2, SSK1 response regulator (receiver) …. The source holds these as a separate data set.
The target is the same in assay [13]. This is another data set of the same source.
The target is the same in assay [14]. The source holds these as a separate data set.
For assay [15] the target is unchanged. The source holds these as a separate data set.
Assay [16] has the same target. This is another data set of the same source.
For assay [17] the target is unchanged. This is another data set of the same source.
The target is the same in assay [18]. This is another data set of the same source.
Assay [19] has the same target. This is another data set of the same source.
For assay [20] the target is unchanged. This is another data set of the same source.

Read-outs that look alike come from different tables or passages of the source.

B1: phosphorylated SLN1 response regulator (receiver) domain, SLN1-R1∼P (domain or fragment, S. cerevisiae, UniProt P39928 1084-1220, looked up)
chain: NETSVKILVVEDNHVNQEVIKRMLNLEGIENIELACDGQEAFDKVKELTSKGENYNMIFMDVQMPKVDGLLSTKMIRRDLGYTSPIVALTAFADDSNIKECLESGMNGFLSKPIKRPKLKTILTEFCAAYQGKKNNK
modifications: phosphorylated (32P) by phosphotransfer from phospho-SLN1-HK; residue not printed for this domain
Broadly, the Kd is the concentration at which binding is half-saturated. A lower Kd goes with higher affinity. As for B1, the Kd in assay [1] was 2700 nM; in assay [2], 18 µM; in [3] it was 4.6 µM; in assay [4] it was 2600 nM; in [5] it was 2800 nM; in assay [6] it was 3.2 µM. For the same molecule, the Kd in assay [7] worked out at 2300 nM; in assay [8] it was 6.2 µM; in assay [9] it was 10 µM; in [10] it was 2300 nM.

B2: phosphorylated YPD1, YPD1∼P (natural protein, S. cerevisiae, UniProt Q07688 1-167, looked up)
chain: T1 sequence (looked up)
modifications: phosphorylated (32P) by phosphotransfer from GST-SLN1-HK-R1; residue not given
B2: the Kd in assay [11] stood at 4.3 µM; in assay [12], 11.5 µM; in assay [13] it was 2100 nM; in assay [14], 1400 nM; in assay [15], 3.8 µM; in assay [16], 4.4 µM. In addition, the Kd in [17] came out at 2200 nM; in [18] it was 3000 nM; in [19] it was 4 µM; in assay [20], 4.3 µM.
